Test results from patent US20210188980A1 (SHANGHAI EPIMAB BIOTHERAPEUTICS, published 2021).
Changes are numbered by the printed parent chain.

B1: HumAb719-11 (antibody, human IgG1, kappa, L234A L235A, V domains shown)
VH: EVQLLESGGGLVQPGGSLRLSCAASGFSFSSHLMSWVRQAPGKGLEWVAAISGGGADTYYPDSVKGRFTISRDNSKNTLYLQMNSLRAEDTAVYYCTRQILAFDSWGQGTTVTVSS
VL: DIQMNQSPSSLSASVGDRVTITCHASQNIYVWLNWYQQKPGKAPKLLIYKASNLHTGVPSRFSGSGSGTDFTFTISSLQPEDIATYYCQQGQSYPWTFGGGTKVEIKR
notes: humanized mAb719
B2: mAb713c (antibody, V domains shown)
VH: EVKLVESGGGLVKPGGSLELSCAASGFTSSDYGMHWVRQAPEKGLEWVAYISSGSYTIYYADTVKGRFTISRDNAKNTLFLQMTSLRSEDTAMYYCAKRGGSSHVNVMDYWGQGTSVTVSS
VL: DIQMTQSSSYLSVSLGGRVTITCKASDHINNWLAWYQQKPGNAPRLLISGATSLETGVPSRFSGSGSGKDYTLSITSLQTEDVATYYCQQYWSPPYTFGGGTKLEIK
notes: also called mAb73c
B3: HumAb713-3 (antibody, human IgG1, kappa, L234A L235A, V domains shown)
VH: EVQLVESGGGLVQPGGSLRLSCAASGFTSSDYGMHWVRQAPGKGLEWVSYISSGSYTIYYADTVKGRFTISRDNAKNSLYLQMNSLRDEDTAVYYCAKRGGSSHVNVMDYWGQGTTVTVSS
VL: DIQMTQSPSSLSASVGDRVTITCKASDHINNWLAWYQQKPGKAPKLLIYGATSLETGVPSRFSGSGSGTDFTFTISSLQPEDIATYYCQQYWSPPYTFGGGTKVEIKR
notes: humanized mAb713; also called HurnAb713-3
B4: HumAb713-9 (antibody, human IgG1, kappa, L234A L235A, V domains shown)
VH: B3 VH with S29F, K98R
VL: B3 VL with Y49S, F71Y
notes: humanized mAb713
B5: HumAb713-10 (antibody, human IgG1, kappa, L234A L235A, V domains shown)
VH: B3 VH with S29F
VL: B3 VL with Y49S, F71Y
notes: humanized mAb713
B6: HumAb713-14 (antibody, human IgG1, kappa, L234A L235A, V domains shown)
VH: B3 VH with S29F
VL: B3 VL with Y49S, T69K, F71Y
notes: humanized mAb713
B7: HumAb713-13 (antibody, human IgG1, kappa, L234A L235A, V domains shown)
VH: B3 VH with S29F, K98R
VL: B3 VL with Y49S, T69K, F71Y
notes: humanized mAb713
B8: HumAb713-16 (antibody, human IgG1, kappa, L234A L235A, V domains shown)
VH: B3 VH with S49A
VL: B3 VL with Y49S, T69K, F71Y
notes: humanized mAb713
B9: HumAb713-1 (antibody, human IgG1, kappa, L234A L235A, V domains shown)
VH: B3 VH with S29F, K98R
VL: B3 VL
notes: humanized mAb713
B10: HumAb713-15 (antibody, human IgG1, kappa, L234A L235A, V domains shown)
VH: B3 VH
VL: B3 VL with Y49S, T69K, F71Y
notes: humanized mAb713
B11: HumAb713-12 (antibody, human IgG1, kappa, L234A L235A, V domains shown)
VH: B3 VH with S49A
VL: B3 VL with Y49S, F71Y
notes: humanized mAb713
B12: HumAb713-11 (antibody, human IgG1, kappa, L234A L235A, V domains shown)
VH: B3 VH
VL: B3 VL with Y49S, F71Y
notes: humanized mAb713
B13: HumAb709-7 (antibody, human IgG1, kappa, L234A L235A, V domains shown)
VH: EVQLVESGGGLVQPGGSLRLSCAASGFTFSFYTMSWVRQAPGKGLEWVATISGGGRDTYYPDSVKGRFTISRDNAKNSLYLQMNSLRAEDTAVYYCARQGGNYLFAYWGQGTLVTVSS
VL: DIVMTQSPSSLSASVGDRVTITCKASQDVNTVVAWYQQKPGKAPKVLISWASTRHTGVPSRFSGSGSGTDYTLTISSLQPEDFATYYCQQHYTTPYTFGGGTKVEIKR
notes: humanized mAb709
B14: HumAb709-8 (antibody, human IgG1, kappa, L234A L235A, V domains shown)
VH: B13 VH with R98G
VL: B13 VL
notes: humanized mAb709; also called HurnAb709-8
B15: HumAb709-2 (antibody, human IgG1, kappa, L234A L235A, V domains shown)
VH: B13 VH with R98G
VL: B13 VL with V3Q, V46L, S49Y
notes: humanized mAb709
B16: HumAb709-10 (antibody, human IgG1, kappa, L234A L235A, V domains shown)
VH: B13 VH
VL: B13 VL with S63T
notes: humanized mAb709
B17: HumAb709-1 (antibody, human IgG1, kappa, L234A L235A, V domains shown)
VH: B13 VH
VL: B13 VL with V3Q, V46L, S49Y
notes: humanized mAb709
B18: HumAb709-14 (antibody, human IgG1, kappa, L234A L235A, V domains shown)
VH: B13 VH with R98G
VL: B13 VL with A43S, P44L, S63T
notes: humanized mAb709
B19: HumAb709-3 (antibody, human IgG1, kappa, L234A L235A, V domains shown)
VH: B13 VH with G44R, R98G
VL: B13 VL with V3Q, V46L, S49Y
notes: humanized mAb709
B20: HumAb709-11 (antibody, human IgG1, kappa, L234A L235A, V domains shown)
VH: B13 VH with R98G
VL: B13 VL with S63T
notes: humanized mAb709
B21: HumAb709-13 (antibody, human IgG1, kappa, L234A L235A, V domains shown)
VH: B13 VH
VL: B13 VL with A43S, P44L, S63T
notes: humanized mAb709
B22: HumAb709-6 (antibody, human IgG1, kappa, L234A L235A, V domains shown)
VH: B13 VH with G44R, R98G
VL: B13 VL with V3Q, V46L
notes: humanized mAb709
B23: HumAb709-5 (antibody, human IgG1, kappa, L234A L235A, V domains shown)
VH: B13 VH with R98G
VL: B13 VL with V3Q, V46L
notes: humanized mAb709
B24: HumAb709-15 (antibody, human IgG1, kappa, L234A L235A, V domains shown)
VH: B13 VH with G44R, R98G
VL: B13 VL with A43S, P44L, S63T
notes: humanized mAb709
B25: HumAb709-12 (antibody, human IgG1, kappa, L234A L235A, V domains shown)
VH: B13 VH with G44R, R98G
VL: B13 VL with S63T
notes: humanized mAb709; also called HuntAb709-12
B26: HumAb709-4 (antibody, human IgG1, kappa, L234A L235A, V domains shown)
VH: B13 VH
VL: B13 VL with V3Q, V46L
notes: humanized mAb709
B27: HumAb709-9 (antibody, human IgG1, kappa, L234A L235A, V domains shown)
VH: B13 VH with G44R, R98G
VL: B13 VL
notes: humanized mAb709

Biological target: T1, human PD-1 ECD/Fc fusion protein (human)
T1 construct: also called huPD-1/Fc; HuPD-1 ECD/Fc
Experiment: BLI Octet, immobilized huPD-1-Fc, Ab analyte
Excerpt: All 21 humanized antibodies and the chimeric antibody (mAb719c) were characterized by binding ELISA and affinity determination using Octet® RED96 biolayer interferometry system (Pall FortéBio LLG), using a biosensor having immobilized human PD-Fc as the antibody target. Rate constants were derived by making kinetic binding measurements at five different concentrations of antibody.

T1 sequence (chain, as listed by the source limits assumed): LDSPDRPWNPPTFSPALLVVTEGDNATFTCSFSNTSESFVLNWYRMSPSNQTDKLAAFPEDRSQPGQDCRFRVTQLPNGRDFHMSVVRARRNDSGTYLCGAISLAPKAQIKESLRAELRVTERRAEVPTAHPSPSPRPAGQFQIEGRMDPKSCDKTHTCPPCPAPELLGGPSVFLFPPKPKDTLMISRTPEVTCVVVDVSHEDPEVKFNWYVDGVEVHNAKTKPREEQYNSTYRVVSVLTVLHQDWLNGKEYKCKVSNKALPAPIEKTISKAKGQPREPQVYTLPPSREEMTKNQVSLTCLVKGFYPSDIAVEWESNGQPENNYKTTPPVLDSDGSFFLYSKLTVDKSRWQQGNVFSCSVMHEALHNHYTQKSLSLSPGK

| Kd [nM] | koff [s⁻¹] | kon [M⁻¹ s⁻¹] | Binder |
| --- | --- | --- | --- |
| 3.82 | 0.000227 | 59400 | B1 |

Biological target: T2, human PD-1 expressed on cells (human, UniProt Q15116 25-288)
T2 construct: whole, on cells; also called CHO-K1/huPD-1; CHO-K1-hPD-1 cells
Experiment: cell RBA FACS; competitor PD-L2/Fc

T2 sequence (Q15116 25-288): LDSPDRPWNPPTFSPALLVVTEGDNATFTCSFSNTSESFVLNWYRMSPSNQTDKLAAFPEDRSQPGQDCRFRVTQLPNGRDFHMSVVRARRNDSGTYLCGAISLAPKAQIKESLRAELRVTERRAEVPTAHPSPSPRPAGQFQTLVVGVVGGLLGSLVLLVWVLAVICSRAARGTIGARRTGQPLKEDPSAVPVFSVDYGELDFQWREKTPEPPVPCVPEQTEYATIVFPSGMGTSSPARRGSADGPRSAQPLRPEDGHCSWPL

| IC50 [nM] | Binder |
| --- | --- |
| 2.2 | B2 |
| 1.24 | B3 |
| 2 | B4 |
| 1.23 | B5 |
| 1.45 | B6 |
| 2.13 | B7 |
| 1.63 | B8 |
| 1.2 | B9 |
| 1.65 | B10 |
| 1.59 | B11 |
| 0.97 | B12 |

Biological target: T3, human PD-1-His protein (human, UniProt Q15116 25-167, limits assumed)
T3 construct: also called huPD-1; not shown: His tag
Experiment: SPR Biacore

T3 sequence (Q15116 25-167 limits assumed): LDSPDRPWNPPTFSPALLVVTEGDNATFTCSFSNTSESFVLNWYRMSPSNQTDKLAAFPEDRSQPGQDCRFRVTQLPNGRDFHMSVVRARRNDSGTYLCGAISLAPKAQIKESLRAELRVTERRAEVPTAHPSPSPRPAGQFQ

| Kd [nM] | koff [s⁻¹] | kon [M⁻¹ s⁻¹] | Binder |
| --- | --- | --- | --- |
| 1.3 | 0.000284 | 218000 | B2 |
| 2.46 | 0.000208 | 84500 | B3 |
| 11.1 | 0.001 | 90100 | B9 |
| 2.37 | 0.000378 | 159000 | B12 |

Biological target: T3, human PD-1-His protein
Experiment: SPR Biacore, Ab captured, huPD-1-His analyte
Experimental: (§1) All 15 humanized antibodies and the chimeric antibody (mAb709c) were characterized by binding ELISA and cell-based RBA. For cell-based RBA, 2×10⁵ cells/well of CHO-K1-huPD1 cells were added to a pre-blocked 96-well round-bottomed plate and after washing, 50 μl antibodies with diluted concentration ranging from 0.064 nM to 200 nM were added to each well. Next, 50 μl of 60 μg/ml biotinylated PD-L1/Fc or biotinylated PD-L2/Fc protein were added. After gentle mixing and incubation at 4° C., the cells were washed and stained by Alexa Fluor™ 488 streptavidin solution (1:1000, ThermoFisher Scientific; Cat. No. S32354). Signals were readout by FACS and curves were fitted by GraphPad software. […] The association and dissociation rate constants, k (M⁻¹ s⁻¹) and koff(s⁻¹), respectively, were determined by making kinetic binding measurements at five different concentrations of human PD-1-His protein at a continuous flow rate of 30 μl/min. The equilibrium dissociation constant KD (M) of the reaction between antibodies and related target proteins was calculated from the kinetic rate constants using the formula KD=koff/kₒₙ. HumAb709-8 had minimal back-mutation(s) while maintaining to the greatest extent the affinity of the parental variable domains on chimeric mAb709c.

| Kd [nM] | koff [s⁻¹] | kon [M⁻¹ s⁻¹] | Binder |
| --- | --- | --- | --- |
| 2.36 | 0.000336 | 141000 | B13 |
| 0.368 | 4.69e-05 | 127000 | B14 |
| 0.684 | 5.5e-05 | 80300 | B15 |
| 2.04 | 0.000297 | 146000 | B16 |
| 11 | 0.00215 | 195000 | B17 |

Biological target: T2, human PD-1 expressed on cells
Experiment: cell RBA FACS; competitor PD-L1/Fc

| IC50 [nM] | Binder |
| --- | --- |
| 0.91 | B2 |
| 0.77 | B3 |
| 1.2 | B4 |
| 0.8 | B5 |
| 0.91 | B6 |
| 0.7 | B7 |
| 0.65 | B8 |
| 0.5 | B9 |
| 0.88 | B10 |
| 0.94 | B11 |
| 0.51 | B12 |

Biological target: T2, human PD-1 expressed on cells
Experiment: cell RBA FACS, CHO-K1-huPD1; competitor biotin-PD-L1/Fc
Experimental: as §1

| IC50 [nM] | Binder |
| --- | --- |
| 0.4 | B13 |
| 0.44 | B14 |
| 0.51 | B18 |
| 1.25 | B19 |
| 0.47 | B15 |
| 0.55 | B20 |
| 0.29 | B16 |
| 0.5 | B21 |
| 1.23 | B22 |
| 0.67 | B23 |
| 1.02 | B17 |
| 0.9 | B24 |
| 0.45 | B25 |
| 0.78 | B26 |
| 1.04 | B27 |

Biological target: T2, human PD-1 expressed on cells
Experiment: cell RBA FACS, CHO-K1-huPD1; competitor biotin-PD-L2/Fc
Experimental: as §1

| IC50 [nM] | Binder |
| --- | --- |
| 0.84 | B13 |
| 1 | B14 |
| 0.92 | B18 |
| 1.64 | B19 |
| 0.99 | B15 |
| 0.92 | B20 |
| 0.8 | B16 |
| 0.78 | B21 |
| 1.26 | B22 |
| 0.97 | B23 |
| 1.64 | B17 |
| 1.21 | B24 |
| 1.35 | B25 |
| 1.68 | B26 |
| 1.76 | B27 |
